Read-outs that look alike come from different tables or passages of the source.
Legend:
[1] = system: EGFRvIII-mFc; test: SPR (BIACORE) binding kinetics, mAb-capture format; parameters: species or system human; conditions: 37° C., NB=no binding; for ka: analyte EGFRvIII-mFc (dimeric); for kd: analyte EGFRvIII-mFc
[2] = target: C-term biotin J-peptide (Homo sapiens, UniProt P00533, DELINS30-297G); test: Antibody specificity by ELISA; conditions: ELISA binding, avidin pre-coated plates
Protocol: (§1) To further characterize anti-hEGFRvIII mAbs, their binding specificity was examined by ELISA. […] For the junctional peptides that were linked to biotin either at C-terminal (SEQ ID NO:149) or N-terminal (SEQ ID NO:150) via a linker, plates were pre-coated with avidin. Also, coated was an irrelevant peptide (control peptide) with or without biotin at its N-terminal. Anti-EGFRvIII antibodies as well as an isotype control antibody were added to coated plates and allowed to incubate for 1 hour at 25° C. The plates were then washed and bound anti-EGFRvIII mAbs were detected with anti-human Fc antibodies conjugated with horse-radish peroxidase (HRP). […] Data analysis used a sigmoidal dose-response model within PRISM™ software.

[3] = target: N-term biotin J-peptide (Homo sapiens, UniProt P00533, DELINS30-297G); test: Antibody specificity by ELISA; conditions: ELISA binding, avidin pre-coated plates
Protocol: as §1

[4] = target: junctional peptide (J-peptide) (Homo sapiens, UniProt P00533, DELINS30-297G); test: Antibody specificity by ELISA; conditions: ELISA binding
Protocol: as §1

[5] = system: EGFRvIII-mFc; type: binding, human; conditions: 37° C., receptor-capture, EGFRvIII-mFc captured
Protocol: (§2) Measurements were conducted on a T100 BIACORE™ instrument. […] In the receptor-capture format, either EGFRvIII-mFc or EGFR-mFc, was captured on the BIACORE™ chip and the respective antibodies flowed over. Kinetic association (ka) and dissociation (kd) rate constants were determined by processing and fitting the data to a 1:1 binding model using Scrubber 2.0 curve fitting software. Binding dissociation equilibrium constants (KD) and dissociative half-lives (t1/2) were calculated from the kinetic rate constants as: KD (M)=kd/ka; and t1/2 (min)=ln 2/(60*kd).

[6] = target: EGFR-mmh (Homo sapiens, UniProt P00533); test: SPR (BIACORE) binding kinetics, mAb-capture format; conditions: 37° C., NB=no binding
[7] = target: T1, EGFR-mFc (Homo sapiens, UniProt P00533); test: SPR (BIACORE) binding kinetics, receptor-capture format; conditions: 37° C., EGFR-mFc captured, NB=no binding
Protocol: as §2

[8] = system: HEK293 cells; test: FACS cell binding selectivity; type: cell-based; conditions: 10 μg/ml
Protocol: To determine the specificity of the anti-EGFRvIII mAbs, their binding to HEK293, HEK293 cells expressing EGFRvIII (HEK293/EGFRvIII) and A431 cells, was analyzed by fluorescence activated cell sorting (FACS). HEK293/EGFRvIII cells were prepared by transfecting HEK293 cells with neomycin resistant DNA vectors constitutively expressing full-length hEGFRvIII (SEQ ID NO:147) using LIPOFECTAMINE™ 2000 transfection reagent (INVITROGEN™). At two days post-transfection, cells were placed under G418 selection for approximately two weeks. Populations positively expressing EGFRvIII were isolated via fluorescence activated cell sorting (FACS). The HEK293 cells expressing ˜3×10^6 copies of EGFRvIII per cell were used in the experiment. Briefly, the anti-EGFRvIII antibodies at 10 μg/ml were incubated with cells for 30 minutes at room temperature, washed, incubated with secondary antibody, i.e., phycoerythrin (PE)-labeled goat F(ab′)2 against human IgG (cat #109-116-170, Jackson ImmunoResearch Laboratories), followed by a final wash before FACS analysis. In another set of experiment, anti-EGFRvIII antibodies were directly conjugated via their lysine residues with the fluorescent dye, ALEXA FLUOR® 488 Dye (INVITROGEN™), thereby eliminating the step using the secondary antibody. […] Controls I, II, III, IV and V are described above. MFI: Mean Fluorescence Intensity.

[9] = target: T1, EGFR-mFc; test: SPR (BIACORE) binding kinetics, mAb-capture format; conditions: 37° C., NB=no binding
[10] = target: EGFRvIII-mmh (Homo sapiens, UniProt P00533, DELINS30-297G); test: SPR (BIACORE) binding kinetics, mAb-capture format; conditions: 37° C., NB=no binding; for ka: analyte EGFRvIII-mmh (monomeric); for kd: analyte EGFRvIII-mmh
Protocol: as §2

[11] = system: N-term Biotin control peptide; test: Antibody specificity by ELISA; conditions: ELISA binding, irrelevant peptide with N-terminal biotin
Protocol: (§3) To further characterize anti-hEGFRvIII mAbs, their binding specificity was examined by ELISA. […] For the junctional peptides that were linked to biotin either at C-terminal (SEQ ID NO:149) or N-terminal (SEQ ID NO:150) via a linker, plates were pre-coated with avidin. Also, coated was an irrelevant peptide (control peptide) with or without biotin at its N-terminal. Anti-EGFRvIII antibodies as well as an isotype control antibody were added to coated plates and allowed to incubate for 1 hour at 25° C. The plates were then washed and bound anti-EGFRvIII mAbs were detected with anti-human Fc antibodies conjugated with horse-radish peroxidase (HRP). Plates were developed with a tetra-methyl-benzidine (TMB) substrate solution to produce a colorimetric reaction and neutralized with sulfuric acid before reading absorbance at 450 nm on a VICTOR™ X5 plate reader. Data analysis used a sigmoidal dose-response model within PRISM™ software. […] NT: Not tested. Controls I-III: As described above.

[12] = system: Control peptide; test: Antibody specificity by ELISA; conditions: ELISA binding, irrelevant peptide
Protocol: as §3

[13] = system: HEK293/EGFRvIII cells; test: Internalization of anti-EGFRvIII mAbs; type: cell-based, human; conditions: 37° C., 1 h
Protocol: Anti-EGFRvIII mAbs (10 ug/ml) were incubated with HEK293/[…] (see Example 7, supra) cells for 2 hours on ice followed by two PBS washes. Cells were then subjected to a 30-min incubation on ice with secondary DYLIGHT™ 488-conjugated anti-human IgG Fab fragments (Jackson ImmunoResearch Laboratories) followed by two additional PBS washes. Antibodies were allowed to internalize for 1 h at 37° C. in internalization buffer (PBS+FBS) or remained at 4° C. Cells were fixed in 4% formaldehyde, and nuclei stained with DRAQ5® DNA dye (Cell Signaling Technology, Inc.). Images were acquired at 40× on the IMAGEXPRESS™ high content system (Molecular Devices) and internalized vesicles were quantitated using Columbus software (Perkin Elmer).

[14] = directly labeled (ALEXA FLUOR 488) antibodies

EGFRvIII-mFc, sequence (as listed by the source): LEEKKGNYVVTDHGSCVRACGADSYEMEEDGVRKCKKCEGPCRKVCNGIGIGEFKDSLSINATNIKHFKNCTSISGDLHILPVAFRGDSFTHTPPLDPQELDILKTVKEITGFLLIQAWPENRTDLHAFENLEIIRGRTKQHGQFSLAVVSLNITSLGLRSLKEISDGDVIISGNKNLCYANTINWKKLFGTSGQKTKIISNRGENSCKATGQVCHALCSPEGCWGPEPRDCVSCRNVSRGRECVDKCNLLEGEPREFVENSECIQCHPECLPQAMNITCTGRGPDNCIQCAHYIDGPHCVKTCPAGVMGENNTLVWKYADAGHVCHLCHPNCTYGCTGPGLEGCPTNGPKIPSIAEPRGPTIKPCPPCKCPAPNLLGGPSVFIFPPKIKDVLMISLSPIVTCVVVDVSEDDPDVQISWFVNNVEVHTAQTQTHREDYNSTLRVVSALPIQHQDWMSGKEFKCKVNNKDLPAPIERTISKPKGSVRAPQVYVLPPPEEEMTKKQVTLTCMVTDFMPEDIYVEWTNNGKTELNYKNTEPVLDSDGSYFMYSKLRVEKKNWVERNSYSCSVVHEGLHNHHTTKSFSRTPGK

| Molecule | ka [1] [M⁻¹ s⁻¹] | kd [1] [s⁻¹] | EC50 [2] [nM] | EC50 [3] [nM] | EC50 [4] [nM] | ka [5] [M⁻¹ s⁻¹] | kd [5] [s⁻¹] | ka [7] [M⁻¹ s⁻¹] | kd [7] [s⁻¹] | Parental HEK293 MFI ([8]; secondary PE-labeled anti-Fc) | ka [10] [M⁻¹ s⁻¹] | kd [10] [s⁻¹] | EC50 [11] [nM] | EC50 [12] [nM] | Parental HEK293 MFI [8, 14] | internalization [13] | also measured |
| --- | --- | --- | --- | --- | --- | --- | --- | --- | --- | --- | --- | --- | --- | --- | --- | --- | --- |
| H1H2195P: human IgG1 Fc anti-EGFRvIII antibody; HCVR/LCVR SEQ ID NOs 18/26 (antibody, V domains shown, human IgG1 Fc) VH: QVQLVESGGGVVQPGRSRRLSCVGSGFIFSSYGMHWVRQAPGKGLEWVALIFYDGSNEYYVDSVKGRFTISRDNSKNTLYLQMNSLRAEDTAVYYCAREGYSQRYKYYFGMDVWGQGTTVTVSS VL: DIQMTQSPSSVSASVGDRVTITCRASQGISSWLAWYQQQPGKAPKLLIYAASSLQSGVPSRFSGSGSGTDFTLTISSLQPEDFATYYCQQTNSFPLTFGGGTKVEIKR | 102000 | 0.000113 | > 10 | > 10 | > 10 | 237000 | 2.53e-05 | 225000 | 5.2e-05 | 1176 | 64800 | 0.000694 | > 10 | > 10 |  |  | ka ([6]; analyte EGFR-mmh (monomeric)): 56600 M⁻¹ s⁻¹; kd ([6]; analyte EGFR-mmh): 0.000523 s⁻¹; ka ([9]; analyte EGFR-mFc (dimeric)): 92000 M⁻¹ s⁻¹; kd ([9]; analyte EGFR-mFc): 0.000189 s⁻¹ |
| H1H1913N: human IgG1 Fc anti-EGFRvIII antibody with variable domains 1913; HCVR/LCVR SEQ ID NOs 130/138 (antibody, V domains shown, human IgG1 Fc) VH: QVQLQQWGAGLLKPSETLSLTCAVYGGSFSGDYWSWIRQSPGKGLEWIGEINHSGSTNYNPSLKSRVTISIDTSKNQFSLKLSSVTAADTAVYYCARGGGDYYYGMDVWGLGTTVTVSS VL: AIQMTQSPSSLSASVGDRVTITCRASQGIGNDLGWYQQKPGKAPNLLIYATSSLQSGVPSRFSGSGSGTDFTLTISSLQPEDFATYYCLQDYNYPWTFGQGTKVEIK | 14000 | 0.000316 |  |  |  | 63000 |  | 5930 | 1e-06 |  | 163 | 0.00114 |  |  | 4801 |  | Kd [5]: 0.0158 nM |
| H1H1912N: human IgG1 Fc anti-EGFRvIII antibody with variable domains 1912; HCVR/LCVR SEQ ID NOs 66/74 (antibody, V domains shown, human IgG1 Fc) VH: EVQLVESGGGLVQPGRSLRLSCAASGFTFDDYAMHWVRQVPGKGLEWVSGISWNSGSIGYADSVKGRFTISRDNAKNSLYLQMNSLRAEDTALYYCAKDIHDYGKDYYYYYGMDVWGQGTTVTVSS VL: EIALTQSPGTLSLSPGERATLSCRASQSVSSTYLAWYQQKPGQAPRLLIYGASSRATGIPDRFSGSGSGTDFTLTISRLEPEDFAVYYCQQYDSSPITFGQGTRLEIK | 20400 | 0.000971 | > 10 | > 10 | > 10 | 99000 | 0.000537 | 39900 | 0.000914 |  | 18300 | 0.0164 | > 10 | > 10 | 3727 | Internalization was also observed |  |
| H1H1911N: human IgG1 Fc anti-EGFRvIII antibody with variable domains 1911; HCVR/LCVR SEQ ID NOs 50/58 (antibody, V domains shown, human IgG1 Fc) VH: QVQLVESGGGVVQPGRSLRLSCAASGFTFSRYGIHWVRQAPGKGLEWVAVIWHDGSNKYYADSVKGRFTISRDNSKNTLYLQMTSLRAEDTAVYYCARDGLEIRDHYYYGMDVWGQGTTVTVSS VL: DIQMTQSPSTLSASVGDRVTITCRASQSTSSWLAWYQQKPGKAPTLLIYKASSLESGVPSKFSGSGSGTEFTLTISSLQPDDFATYYCQQYNRYSRTFGQGTKVEIK |  |  | > 10 | > 10 | > 10 | 32900 | 0.000643 | 7770 | 0.00174 | 1812 |  |  | > 10 | > 10 | 3593 | Internalization was also observed |  |
